Molecular target: human SEZ6-His (soluble hSEZ6-his antigen) (human) (UniProt Q53EL9)
Assay: SPR, Biacore T200, human SEZ6-His captured on anti-His chip, Fab as analyte

Sequence of UniProt Q53EL9 (Q53EL9 20-925): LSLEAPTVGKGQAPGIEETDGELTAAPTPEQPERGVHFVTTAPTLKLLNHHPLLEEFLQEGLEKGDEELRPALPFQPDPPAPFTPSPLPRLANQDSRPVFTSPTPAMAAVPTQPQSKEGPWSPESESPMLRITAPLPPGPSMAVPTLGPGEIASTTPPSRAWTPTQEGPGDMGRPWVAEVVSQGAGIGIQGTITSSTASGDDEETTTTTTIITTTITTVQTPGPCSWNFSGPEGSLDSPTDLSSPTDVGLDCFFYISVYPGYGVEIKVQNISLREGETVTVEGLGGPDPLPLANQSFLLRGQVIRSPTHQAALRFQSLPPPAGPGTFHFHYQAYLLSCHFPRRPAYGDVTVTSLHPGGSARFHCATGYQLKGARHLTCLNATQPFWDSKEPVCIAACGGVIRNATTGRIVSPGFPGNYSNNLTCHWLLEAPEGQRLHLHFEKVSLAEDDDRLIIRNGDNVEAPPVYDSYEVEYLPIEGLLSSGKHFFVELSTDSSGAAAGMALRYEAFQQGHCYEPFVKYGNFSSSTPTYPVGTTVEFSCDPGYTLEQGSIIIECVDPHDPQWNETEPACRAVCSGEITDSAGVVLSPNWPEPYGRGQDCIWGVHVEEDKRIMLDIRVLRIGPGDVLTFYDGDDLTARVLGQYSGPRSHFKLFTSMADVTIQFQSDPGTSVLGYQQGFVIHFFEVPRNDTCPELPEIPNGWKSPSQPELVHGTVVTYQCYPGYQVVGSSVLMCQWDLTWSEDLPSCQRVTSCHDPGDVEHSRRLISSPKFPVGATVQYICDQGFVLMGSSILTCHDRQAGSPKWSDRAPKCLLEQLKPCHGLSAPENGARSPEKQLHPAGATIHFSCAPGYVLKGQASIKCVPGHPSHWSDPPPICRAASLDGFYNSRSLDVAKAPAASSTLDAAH

B1: MutA (S60N) Fab (Fab construct of the hSEZ6-1.ss1 antibody with the S60N mutation) (Fab, V domains shown)
VH: EVQLVQSGAEVKKPGESLKISCKGSGYSFTSSWINWVRQMPGKGLEWMGRIYPGEGDTNYNGNFEGQVTISADKSISTAYLQWSSLKASDTAMYYCTRGLVMDYWGQGTLVTVSS
VL: EIVLTQSPATLSLSPGERATLSCRASQSVDYNGISYMHWYQQKPGQAPRLLIYAASNVQSGIPARFSGSGSGTDFTLTISSLEPEDFAVYYCQQSIEDPPTFGGGTKVEIK
- Kd: 4.8 nM
- koff: 0.006 s⁻¹
- kon: 1.3e+06 M⁻¹ s⁻¹
